Key:
RS-4;11 = assay: MTT Cell Proliferation Assay, RS-4;11; assay type: cell-based, human; conditions: 120 hours of exposure
Excerpt: (§1) This Example describes characterization of the cytotoxic activity of herein described anti-BKB2R monoclonal antibodies against a panel of cancer cell lines. BxPC-3 is a human adenocarcinoma cell line originally isolated from the pancreas (pancreatic cancer) (ATCC # CRL-1687; Tan et al., Cancer Invest. 4: 15-23, 1986. PubMed: 3754176). MV-4-11 is a human biphenotypic B myelomonocytic leukemia (mixed-lineage leukemia, MLL-AF4) cell line originally isolated from the peripheral blood (ATCC # CRL-959; Lange et al., Blood 70: 192-199, 1987. PubMed: 3496132). Hep G2 is a human hepatocellular carcinoma cell line isolated from the liver (liver cancer) (ATCC # HB-8065; Aden et al., Nature 282: 615-616, 1979. PubMed: 233137). RS4;11 is a human acute lymphoblastic leukemia (mixed-lineage leukemia, MLL-AF4) cell line isolated from the bone marrow (ATTC # CRL-1873) Stong et al., Blood 65: 21-31, 1985. PubMed: 3917311). HT-29 is a human colorectal adenocarcinoma (ATTC # HTB-38) cell line isolated from the colon (colon cancer). Fogh et al., J. Natl. Cancer Inst. 58: 209-214, 1977. PubMed: 833871). NUGC-4 is a human stomach carcinoma isolated from the stomach paragastiric lymph node (JCRB # JCRB0834; Akiyama et al., Jpn. J. Surg., 18: 438-446, 1988). […]
(§2) The anti-proliferative activity of test compounds against the indicated cell lines was evaluated in vitro using the ATCC's MTT Cell Proliferation Assay (Catalog No. 30-1010K). After the 120 hour incubation with drug (e.g., anti-BKB2R mAb or cisplatin), cell proliferation was measured by addition of MTT reagent to each well and incubation for an additional 4 hrs. […] Optical absorbance (570 nm) of the test wells was measured and then quantitated relative to control wells that received no drug. Results were expressed as percent inhibition versus compound concentration and graphed, as shown in FIGS. 19-25, for cell lines BxPC-3, MV-4;11, HepG2, RS-4;11, HT-29, NUGC-4, and PC-3, respectively.

ZDF fa/fa rats [1] = assay: Oral glucose tolerance test in ZDF fa/fa rats, humanized mAbs; assay type: in vivo, rat; conditions: single s.c. administration 0.2 mg/kg
Excerpt: This example describes evaluation of mouse mAb 5F12G1 and its twelve humanized clones in Zucker Diabetic fatty (ZDF fa/fa) rats for effects on insulin sensitivity in animals. Zucker Diabetic Rats develop symptoms similar to type 2 diabetes and are genetically resistant to insulin. […] Therefore, the Zucker rat is a good model to test the ability of the monoclonal antibody to increase insulin sensitivity, especially in an OGTT.
Male ZDF fa/fa rats were obtained from Charles River (Kingston, ON). Upon arrival, rats were ten weeks of age. The rats were housed individually per cage in a room with a photo cycle of 12 hours of light and 12 hours of dark and an ambient temperature of 70-72° F. and fed on regular rodent diet and water ad libitum. After seven days of acclimatization, rats were grouped into fourteen groups of three rats per group (Table 10).
Oral Glucose Tolerance Test. An oral glucose tolerance test (OGTT) was performed on overnight fasted (16 hours) rats. Rats received subcutaneously administered humanized mAbs, mouse mAb 5F12G1 (positive control) and PBS (vehicle control) at a dose of 0.2 mg/kg body weight, thirty minutes prior to glucose administration. D-Glucose was prepared in distilled water and administered orally at 2 g/kg body weight. Blood glucose levels were measured before administration of humanized mAbs, 5F12G1 or vehicle (t=−30 minutes) and just before glucose loading (0 minute), and at timepoints of 30, 60, 90 and 120 minutes, using Accu-chek™ glucose meter.

BxPC-3 = assay: MTT Cell Proliferation Assay, BxPC-3; assay type: cell-based, human; conditions: 120 hours of exposure
Excerpt: as §1, §2

MV-4-11 = assay: MTT Cell Proliferation Assay, MV-4-11; assay type: cell-based, human; conditions: 120 hours of exposure
Excerpt: as §1, §2

ZDF fa/fa rats [2] = assay: Oral glucose tolerance test in ZDF fa/fa rats, single dose of 5F12G1; assay type: in vivo, rat; conditions: single s.c. administration 1.0, 0.2 and 0.04 mg/kg
Experimental: This Example describes evaluation of oral glucose tolerance in Zucker Diabetic fatty (ZDF fa/fa) rats treated with 5F12G1 monoclonal antibody. Male ZDF fa/fa rats (Charles River) were maintained on a Harlan Tekled diet with Arrowhead drinking water ad libitum and allowed to acclimatize for one week. Six animals per group were treated according to the following treatment groups: 1, sterile PBS (vehicle control); 2, 1.0 mg/kg murine monoclonal antibody (mAb) 5F12G1 (VH comprising SEQ ID NO:1, VL comprising SEQ ID NO:2); 3, 0.2 mg/kg mAb 5F12G1; 4, 0.04 mg/kg mAb 5F12G1.
Oral Glucose Tolerance Test. The Oral Glucose Tolerance Test (OGTT) was performed on overnight fasted (16 hours) rats. Vehicle control (PBS) or 5F12G1 monoclonal antibody was administered subcutaneously thirty minutes prior to glucose loading. D-glucose was prepared in distilled water and administered orally at 2 g/kg body weight.
At multiple time points (0, 15, 30, 60, 90 and 120 minutes) blood samples of approximately 50 μl each were collected and processed to isolate the plasma. The plasma samples were analyzed for insulin by an ELISA method using an ultra sensitive mouse insulin ELISA kit (Crystal Chem, Inc., Downers Grove, Ill.). ELISA data were compiled and used to calculate the mean±standard error (SEM) with Microsoft Excel or GraphPad Prism version 5.00 for Windows (GraphPad Software, San Diego Calif. USA).

B1: 5F12G1: murine monoclonal anti-BKB2R antibody (IgG2b,κ), VH comprising SEQ ID NO:1, VL comprising SEQ ID NO:2 (antibody, listed as Mus musculus, V domains shown)
VH: EVKLEESGGGLVQPGGSMKLSCVVSGFTFSDYWMSWVRHSPEMGLEWVAEIRLKSDNYATHYAESVKGRFTISRDDSKSRLYLQINSLRGEDTGIYYCTRDYYAMEYWGQGTSVTVSS
VL: DVVMTQTPLSLPVSLGDQASISCRSSQTIVHSNGKTYLEWYLQKPGQSPKLLIYKVSNRFSGVPDRFSGSGSGTEFTLKISRVETEDLGVYYCFQASHVPYTFGGGTKLEIK
EC 50 Values (ng/ml) RS-4;11 (RS-4;11): 15000 ng/mL | glucose tolerance (ZDF fa/fa rats [1]): showed improvement in glucose tolerance | area under curve (AUC) of blood glucose concentration after oral administration of glucose, compared to vehicle control (ZDF fa/fa rats [1]; 30 min prior to glucose 2 g/kg): decreased | EC 50 Values (ng/ml) BxPC-3 (BxPC-3): 23000 ng/mL | EC 50 Values (ng/ml) MV-4-11 (MV-4-11): 35000 ng/mL | insulin activity in OGTT (ZDF fa/fa rats [2]): dose dependently increased insulin activity | area under curve (AUC) of blood glucose concentration after oral loading of glucose, compared to vehicle control (ZDF fa/fa rats [2]; 30 min before glucose 2 g/kg): decreased

Source: patent US20140017242A1, “ANTI-BRADYKININ B2 RECEPTOR (BKB2R) MONOCLONAL ANTIBODY” (Diamedica, Inc., priority 2010, published 2014)
